Data on one protein can be found in publication PMC8595650, “Structure of the bacterial flagellar hook cap provides insights into a hook assembly mechanism” (Communications Biology, 2021).

Values joined by “and” are separate entries in the source; they are usually repeats but may differ in a detail not shown here. Equal entries are not always repeated.

The data set deals with the molecule itself. Kind of data set: cross-linking; purified FlgD with EDC and Sulfo-NHS (molar ratio 1 : 2000) or DTSSP (1 : 50), products on SDS-PAGE.

B1: S. enterica FlgD (flagellar hook cap protein, 232 amino acid residues) (natural protein)
chain: MSIAVNMNDPTNTGVKTTTGSGSMTGSNAADLQSSFLTLLVAQLKNQDPTNPLQNNELTTQLAQISTVSGIEKLNTTLGAISGQIDNSQSLQATTLIGHGVMVPGTTILAGKGAEEGAVTSTTPFGVELQQPADKVTATITDKDGRVVRTLEIGELRAGVHTFTWDGKQTDGTTVPNGSYNIAITASNGGTQLVAQPLQFALVQGVTKGSNGNLLDLGTYGTTTLDEVRQII
notes: Separates on gel filtration into a pentamer and a monomer fraction; A seleno-methionine form (E. coli B834(DE3)) was used for phasing only; also called full-length FlgD; source: E. coli BL21(DE3)pLysS, purified (Q-Sepharose, Butyl-Sepharose, Superdex 200)
Regarding B1, the “stoichiometry N” value was 5 and 10.

A word on the stoichiometry N: it is a count of units in the complex or per binding partner.
